Publication PMC5722895, “The dynamic dimer structure of the chaperone Trigger Factor” (Nature Communications, 2017)
Numbering of substitutions follows the chain as printed. Names may count otherwise.

B1: SBD–PPD (114–432) (domain or fragment, E. coli, UniProt P0A850 114-432, looked up)
chain: EVELQGLEAIEVEKPIVEVTDADVDGMLDTLRKQQATWKEKDGAVEAEDRVTIDFTGSVDGEEFEGGKASDFVLAMGQGRMIPGFEDGIKGHKAGEEFTIDVTFPEEYHAENLKGKAAKFAINLKKVEERELPELTAEFIKRFGVEDGSVEGLRAEVRKNMERELKSAIRNRVKSQAIEGLVKANDIDVPAALIDSEIDVLRRQAAQRFGGNEKQALELPRELFEEQAKRRVVVGLLLGEVIRTNELKADEERVKGLIEEMASAYEDPKEVIEFYSKNKELMDNMRNVALEEQAVEAVLAKAKVTEKETTFNELMNQQA
notes: Trigger Factor, E. coli, residues 114-432; also called bi-domain construct SBD–PPD; not shown: His tag, N-terminal, cleaved
B2: RBD (residues 1–117) (domain or fragment, E. coli, UniProt P0A850 1-117, looked up)
chain: MQVSVETTQGLGRRVTITIAADSIETAVKSELVNVAKKVRIDGFRKGKVPMNIVAQRYGASVRQDVLGDLMSRNFIDAIIKEKINPAGAPTYVPGEYKLGEDFTYSVEFEVYPEVEL
notes: Trigger Factor, E. coli, residues 1-117 (stop codon at position 118); not shown: His tag, N-terminal, cleaved
B3: SBD (114–148/247–432) (domain or fragment, E. coli, UniProt P0A850 114-148, looked up)
chain: EVELQGLEAIEVEKPIVEVTDADVDGMLDTLRKQQELTAEFIKRFGVEDGSVEGLRAEVRKNMERELKSAIRNRVKSQAIEGLVKANDIDVPAALIDSEIDVLRRQAAQRFGGNEKQALELPRELFEEQAKRRVVVGLLLGEVIRTNELKADEERVKGLIEEMASAYEDPKEVIEFYSKNKELMDNMRNVALEEQAVEAVLAKAKVTEKETTFNELMNQQA
notes: Trigger Factor, E. coli, residues 114-148 (linker part of the SBD); Trigger Factor, E. coli, residues 247-432 (C-terminal part of the SBD); The PPD (149-246) is left out; not shown: His tag, N-terminal, cleaved
B4: PPD (149–249) (domain or fragment, E. coli, UniProt P0A850 149-249, looked up)
chain: ATWKEKDGAVEAEDRVTIDFTGSVDGEEFEGGKASDFVLAMGQGRMIPGFEDGIKGHKAGEEFTIDVTFPEEYHAENLKGKAAKFAINLKKVEERELPELT
notes: Trigger Factor, E. coli, residues 149-249; also called peptidyl-prolyl isomerase domain; not shown: His tag, N-terminal, cleaved
B5: TF(3A) with mutation set mutC (M140E) (natural protein, E. coli, UniProt P0A850 1-432, looked up)
chain: MQVSVETTQGLGRRVTITIAADSIETAVKSELVNVAKKVRIDGAAAGKVPMNIVAQRYGASVRQDVLGDLMSRNFIDAIIKEKINPAGAPTYVPGEYKLGEDFTYSVEFEVYPEVELQGLEAIEVEKPIVEVTDADVDGELDTLRKQQATWKEKDGAVEAEDRVTIDFTGSVDGEEFEGGKASDFVLAMGQGRMIPGFEDGIKGHKAGEEFTIDVTFPEEYHAENLKGKAAKFAINLKKVEERELPELTAEFIKRFGVEDGSVEGLRAEVRKNMERELKSAIRNRVKSQAIEGLVKANDIDVPAALIDSEIDVLRRQAAQRFGGNEKQALELPRELFEEQAKRRVVVGLLLGEVIRTNELKADEERVKGLIEEMASAYEDPKEVIEFYSKNKELMDNMRNVALEEQAVEAVLAKAKVTEKETTFNELMNQQA
notes: Trigger Factor, E. coli, residues 1-432, TF(3A) background; not shown: His6, N-terminal, cleaved
B6: TF(3A) with mutation sets mutB + mutC (M374A, Y378A, V384A, F387A, M140E) (natural protein, E. coli, UniProt P0A850 1-432, looked up)
chain: B5 chain with M374A, Y378A, V384A, F387A
notes: Trigger Factor, E. coli, residues 1-432, TF(3A) background; also called mutC + mutB; not shown: His6, N-terminal, cleaved
B7: TF(3A) with mutation set mutD (R316A, R321A) (natural protein, E. coli, UniProt P0A850 1-432, looked up)
chain: B5 chain with E140M, R316A, R321A
notes: as for B5
B8: TF(3A) with mutation sets mutD + mutC (R316A, R321A, M140E) (natural protein, E. coli, UniProt P0A850 1-432, looked up)
chain: B5 chain with R316A, R321A
notes: Trigger Factor, E. coli, residues 1-432, TF(3A) background; also called mutC + mutD; not shown: His6, N-terminal, cleaved
B9: TF(3A) with mutation set mutB (M374A, Y378A, V384A, F387A) (natural protein, E. coli, UniProt P0A850 1-432, looked up)
chain: B5 chain with E140M, M374A, Y378A, V384A, F387A
notes: as for B5
B10: TF(3A) with mutation sets mutB + mutD (M374A, Y378A, V384A, F387A, R316A, R321A) (natural protein, E. coli, UniProt P0A850 1-432, looked up)
chain: B5 chain with E140M, R316A, R321A, M374A, Y378A, V384A, F387A
notes: as for B5
B11: TF(3A) variant TF(F44A, R45A, K46A) (natural protein, E. coli, UniProt P0A850 1-432, looked up)
chain: B5 chain with E140M
notes: not shown: His6, N-terminal, cleaved

Target: the molecule itself
Experiment: SEC-MALS; sample buffer (20 mM K-phosphate pH 6.5, 100 mM KCl, 0.5 mM EDTA); 6 °C for the individual domains; concentration series fitted to a fast monomer–dimer equilibrium; dimer to monomers

B1 and B2 cannot be ordered by Kd: > 1000 µM for the first, ≥ 1500 µM for the second.

B3 and B4 cannot be ordered by Kd: > 1000 µM for the first, > 5000 µM for the second.

Target: the molecule itself
Experiment: SEC-MALS; concentration series of full-length TF and full-length mutants alone, 26 °C, sample buffer (20 mM K-phosphate pH 6.5, 100 mM KCl, 0.5 mM EDTA); fit to a fast monomer-dimer equilibrium; dimer to monomers

First: B5
Second: B6
The Kd of the first is lower: 28 µM for the first, > 1000 µM for the second.

Going from B7 to B8, the Kd rises from 22 µM to 260 µM (12-fold). The first binds more tightly here.

B9 and B10 cannot be ordered by Kd: > 1000 µM for the first, > 1000 µM for the second.

For B11, the Kd was 1.1 µM.
